For data set [1], the target named is T1, Arc C-terminal protein (132-396 a.a.), Q63053.
T1 chain: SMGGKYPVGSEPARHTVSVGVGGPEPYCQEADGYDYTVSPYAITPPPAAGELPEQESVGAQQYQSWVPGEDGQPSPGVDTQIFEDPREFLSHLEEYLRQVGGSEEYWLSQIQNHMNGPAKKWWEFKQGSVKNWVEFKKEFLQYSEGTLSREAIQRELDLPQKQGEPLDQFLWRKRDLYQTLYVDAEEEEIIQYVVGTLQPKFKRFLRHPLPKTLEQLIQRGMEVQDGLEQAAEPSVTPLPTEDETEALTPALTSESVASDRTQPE

Data set [2] addresses T2, HHR23A (recombinant, wild type), P54725.
T2 chain: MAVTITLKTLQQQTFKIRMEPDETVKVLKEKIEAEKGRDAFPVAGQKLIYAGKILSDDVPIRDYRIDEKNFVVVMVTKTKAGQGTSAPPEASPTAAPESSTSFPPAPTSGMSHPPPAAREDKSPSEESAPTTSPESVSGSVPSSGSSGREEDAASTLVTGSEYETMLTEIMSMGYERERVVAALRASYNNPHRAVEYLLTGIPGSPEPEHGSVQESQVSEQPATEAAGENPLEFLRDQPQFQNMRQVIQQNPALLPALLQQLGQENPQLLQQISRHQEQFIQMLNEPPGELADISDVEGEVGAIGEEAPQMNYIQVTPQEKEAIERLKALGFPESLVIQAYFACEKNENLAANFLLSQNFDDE

B1: Ube3A (recombinant) (protein)
chain: SGEPQSDDIEASRMKRAAAKHLIERYYHQLTEGCGNEACTNEFCASCPTFLRMDNNAAAIKALELYKINAKLCDPHPSKKGASSAYLENSKGAPNNSCSEIKMNKKGARIDFKDVTYLTEEKVYEILELCREREDYSPLIRVIGRVFSSAEALVQSFRKVKQHTKEELKSLQAKDEDKDEDEKEKAACSAAAMEEDSEASSSRIGDSSQGDNNLQKLGPDDVSVDIDAIRRVYTRLLSNEKIETAFLNALVYLSPNVECDLTYHNVYSRDPNYLNLFIIVMENRNLHSPEYLEMALPLFCKAMSKLPLAAQGKLIRLWSKYNADQIRRMMETFQQLITYKVISNEFNSRNLVNDDDAIVAASKCLKMVYYANVVGGEVDTNHNEEDDEEPIPESSELTLQELLGEERRNKKGPRVDPLETELGVKTLDCRKPLIPFEEFINEPLNEVLEMDKDYTFFKVETENKFSFMTCPFILNAVTKNLGLYYDNRIRMYSERRITVLYSLVQGQQLNPYLRLKVRRDHIIDDALVRLEMIAMENPADLKKQLYVEFEGEQGVDEGGVSKEFFQLVVEEIFNPDIGMFTYDESTKLFWFNPSSFETEGQFTLIGIVLGLAIYNNCILDVHFPMVVYRKLMGKKGTFRDLGDSHPVLYQSLKDLLEYEGNVEDDMMITFQISQTDLFGNPMMYDLKENGDKIPITNENRKEFVNLYSDYILNKSVEKQFKAFRRGFHMVTNESPLKYLFRPEEIELLICGSRNLDFQALEETTEYDGGYTRDSVLIREFWEIVHSFTDEQKRLFLQFTTGTDRAPVGGLGKLKMIIAKNGPDTERLPTSHTCFNVLLLPEYSSKEKLKERLLKAITYAKGFGML
Regarding B1, in data set [1], the “in vitro ubiquitination assay using purified recombinant proteins” value is “Ube3A ubiquitinated Arc in vitro”. Moreover, the “ubiquitination of HHR23A by Ube3A” value in data set [2] is “this domain is required for Ube3A to ubiquitinate HHR23A”.
